Experimental data reported in patent publication US20240287154A1, “MC3R AGONIST PEPTIDES” (The Regents of the University of Michigan, priority 2021, published 2024).
Non-standard residues stand in square brackets, D forms with d. Phe(4-F) = N[C@@H](Cc1ccc(F)cc1)C(=O)O; Phe(4-I) = N[C@@H](Cc1ccc(I)cc1)C(=O)O; Nle = CCCC[C@H](N)C(=O)O; dAbu = CC[C@@H](N)C(=O)O; Aib = CC(C)(N)C(=O)O

Molecular target: human MC3R (human, UniProt P41968 1-323)
Assay: cell-based or functional assay

Chain of human MC3R (P41968 whole entry): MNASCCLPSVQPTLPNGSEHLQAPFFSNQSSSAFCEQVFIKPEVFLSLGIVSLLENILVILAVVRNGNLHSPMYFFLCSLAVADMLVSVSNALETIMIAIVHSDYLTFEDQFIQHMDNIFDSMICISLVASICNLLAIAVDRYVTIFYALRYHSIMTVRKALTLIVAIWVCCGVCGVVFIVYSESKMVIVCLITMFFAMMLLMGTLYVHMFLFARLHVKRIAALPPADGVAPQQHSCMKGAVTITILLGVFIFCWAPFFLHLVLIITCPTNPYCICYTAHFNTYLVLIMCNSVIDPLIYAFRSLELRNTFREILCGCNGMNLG

MC3R cAMP (EC50) [nM] | MC3R selectivity (relative to MC4R) | Binder
1.9 | 1560 | Ac-[Nle][dA]H[Phe(4-F)]R[dW]DRFG-OH (SMILES CCCC[C@H](NC(C)=O)C(=O)N[C@H](C)C(=O)N[C@@H](Cc1c[nH]cn1)C(=O)N[C@@H](Cc1ccc(F)cc1)C(=O)N[C@@H](CCCNC(=N)N)C(=O)N[C@H](Cc1c[nH]c2ccccc12)C(=O)N[C@@H](CC(=O)O)C(=O)N[C@@H](CCCNC(=N)N)C(=O)N[C@@H](Cc1ccccc1)C(=O)NCC(=O)O) [CTX-1518]
1 | 667 | YVXXHFRWDRFG (Nle at 3; D-Abu at 4; D-Trp at 8) [CTX-1135]
73 | 72 | Ac-[Nle][dA]HFR[dW]DRPG-OH (SMILES CCCC[C@H](NC(C)=O)C(=O)N[C@H](C)C(=O)N[C@@H](Cc1c[nH]cn1)C(=O)N[C@@H](Cc1ccccc1)C(=O)N[C@@H](CCCNC(=N)N)C(=O)N[C@H](Cc1c[nH]c2ccccc12)C(=O)N[C@@H](CC(=O)O)C(=O)N[C@@H](CCCNC(=N)N)C(=O)N1CCC[C@H]1C(=O)NCC(=O)O) [CTX-1536]
38.8 | 186 | Ac-[Nle][dA]HFR[dW]DAFG-OH (SMILES CCCC[C@H](NC(C)=O)C(=O)N[C@H](C)C(=O)N[C@@H](Cc1c[nH]cn1)C(=O)N[C@@H](Cc1ccccc1)C(=O)N[C@@H](CCCNC(=N)N)C(=O)N[C@H](Cc1c[nH]c2ccccc12)C(=O)N[C@@H](CC(=O)O)C(=O)N[C@@H](C)C(=O)N[C@@H](Cc1ccccc1)C(=O)NCC(=O)O) [CTX-1534]
25.1 | 11 | Ac-[Nle][dA]HFR[dW]G-NH2 (SMILES CCCC[C@H](NC(C)=O)C(=O)N[C@H](C)C(=O)N[C@@H](Cc1c[nH]cn1)C(=O)N[C@@H](Cc1ccccc1)C(=O)N[C@@H](CCCNC(=N)N)C(=O)N[C@H](Cc1c[nH]c2ccccc12)C(=O)NCC(N)=O) [CTX-1540]
47.1 | 16 | Ac-[Nle][dA]HFR[dW]-NH2 [CTX-1539]
1.9 | 182 | Ac-[Nle][dA]HFR[dW]ARFG-OH (SMILES CCCC[C@H](NC(C)=O)C(=O)N[C@H](C)C(=O)N[C@@H](Cc1c[nH]cn1)C(=O)N[C@@H](Cc1ccccc1)C(=O)N[C@@H](CCCNC(=N)N)C(=O)N[C@H](Cc1c[nH]c2ccccc12)C(=O)N[C@@H](C)C(=O)N[C@@H](CCCNC(=N)N)C(=O)N[C@@H](Cc1ccccc1)C(=O)NCC(=O)O) [CTX-1528]
6 | 1590 | Ac-[Nle][dA]HFR[dW]DKFG-OH (SMILES CCCC[C@H](NC(C)=O)C(=O)N[C@H](C)C(=O)N[C@@H](Cc1c[nH]cn1)C(=O)N[C@@H](Cc1ccccc1)C(=O)N[C@@H](CCCNC(=N)N)C(=O)N[C@H](Cc1c[nH]c2ccccc12)C(=O)N[C@@H](CC(=O)O)C(=O)N[C@@H](CCCCN)C(=O)N[C@@H](Cc1ccccc1)C(=O)NCC(=O)O) [CTX-1535]
64.6 | 15 | Ac-[Nle][dA]HFR[dW][dF]-NH2 (SMILES CCCC[C@H](NC(C)=O)C(=O)N[C@H](C)C(=O)N[C@@H](Cc1c[nH]cn1)C(=O)N[C@@H](Cc1ccccc1)C(=O)N[C@@H](CCCNC(=N)N)C(=O)N[C@H](Cc1c[nH]c2ccccc12)C(=O)N[C@H](Cc1ccccc1)C(N)=O) [CTX-1542]
41.7 | 5320 | Ac-[Nle][dA]HFK[dW]DRFG-OH (SMILES CCCC[C@H](NC(C)=O)C(=O)N[C@H](C)C(=O)N[C@@H](Cc1c[nH]cn1)C(=O)N[C@@H](Cc1ccccc1)C(=O)N[C@@H](CCCCN)C(=O)N[C@H](Cc1c[nH]c2ccccc12)C(=O)N[C@@H](CC(=O)O)C(=O)N[C@@H](CCCNC(=N)N)C(=O)N[C@@H](Cc1ccccc1)C(=O)NCC(=O)O) [CTX-1523]
14.2 | 314 | Ac-[Nle][dA]HFR[dW]KRFG-OH (SMILES CCCC[C@H](NC(C)=O)C(=O)N[C@H](C)C(=O)N[C@@H](Cc1c[nH]cn1)C(=O)N[C@@H](Cc1ccccc1)C(=O)N[C@@H](CCCNC(=N)N)C(=O)N[C@H](Cc1c[nH]c2ccccc12)C(=O)N[C@@H](CCCCN)C(=O)N[C@@H](CCCNC(=N)N)C(=O)N[C@@H](Cc1ccccc1)C(=O)NCC(=O)O) [CTX-1533]
3.1 | 202 | Ac-[Nle][dA]H[Phe(4-I)]R[dW]G-NH2 (SMILES CCCC[C@H](NC(C)=O)C(=O)N[C@H](C)C(=O)N[C@@H](Cc1c[nH]cn1)C(=O)N[C@@H](Cc1ccc(I)cc1)C(=O)N[C@@H](CCCNC(=N)N)C(=O)N[C@H](Cc1c[nH]c2ccccc12)C(=O)NCC(N)=O) [CTX-1543]
7.4 | 1280 | Ac-[Nle][dA]HFR[dW]DRFV-OH (SMILES CCCC[C@H](NC(C)=O)C(=O)N[C@H](C)C(=O)N[C@@H](Cc1c[nH]cn1)C(=O)N[C@@H](Cc1ccccc1)C(=O)N[C@@H](CCCNC(=N)N)C(=O)N[C@H](Cc1c[nH]c2ccccc12)C(=O)N[C@@H](CC(=O)O)C(=O)N[C@@H](CCCNC(=N)N)C(=O)N[C@@H](Cc1ccccc1)C(=O)N[C@H](C(=O)O)C(C)C) [CTX-1538]
1.7 | 51 | H-VMGHFR[dW]DRFG-OH [CTX-1546]
6.6 | 65 | H-YV[Nle][dAbu]HFR[dW]D-NH2 (SMILES CCCC[C@H](NC(=O)[C@@H](NC(=O)[C@@H](N)Cc1ccc(O)cc1)C(C)C)C(=O)N[C@H](CC)C(=O)N[C@@H](Cc1c[nH]cn1)C(=O)N[C@@H](Cc1ccccc1)C(=O)N[C@@H](CCCNC(=N)N)C(=O)N[C@H](Cc1c[nH]c2ccccc12)C(=O)N[C@@H](CC(=O)O)C(N)=O) [CTX-1131]
10.3 | 184 | Ac-[Nle][dA]HFR[dW][Nle]RFG-OH (SMILES CCCC[C@H](NC(C)=O)C(=O)N[C@H](C)C(=O)N[C@@H](Cc1c[nH]cn1)C(=O)N[C@@H](Cc1ccccc1)C(=O)N[C@@H](CCCNC(=N)N)C(=O)N[C@H](Cc1c[nH]c2ccccc12)C(=O)N[C@@H](CCCC)C(=O)N[C@@H](CCCNC(=N)N)C(=O)N[C@@H](Cc1ccccc1)C(=O)NCC(=O)O) [CTX-1532]
4.8 | 82 | Ac-[Nle][dA]HFR[dW]FRFG-OH (SMILES CCCC[C@H](NC(C)=O)C(=O)N[C@H](C)C(=O)N[C@@H](Cc1c[nH]cn1)C(=O)N[C@@H](Cc1ccccc1)C(=O)N[C@@H](CCCNC(=N)N)C(=O)N[C@H](Cc1c[nH]c2ccccc12)C(=O)N[C@@H](Cc1ccccc1)C(=O)N[C@@H](CCCNC(=N)N)C(=O)N[C@@H](Cc1ccccc1)C(=O)NCC(=O)O) [CTX-1529]
51.6 | 14 | Ac-[Nle][Aib]H[Phe(4-I)]R[dW]G-NH2 (SMILES CCCC[C@H](NC(C)=O)C(=O)NC(C)(C)C(=O)N[C@@H](Cc1c[nH]cn1)C(=O)N[C@@H](Cc1ccc(I)cc1)C(=O)N[C@@H](CCCNC(=N)N)C(=O)N[C@H](Cc1c[nH]c2ccccc12)C(=O)NCC(N)=O) [CTX-1545]
289 | – | Ac-[Nle][dA]HFR[dW][dF]RFG-OH (SMILES CCCC[C@H](NC(C)=O)C(=O)N[C@H](C)C(=O)N[C@@H](Cc1c[nH]cn1)C(=O)N[C@@H](Cc1ccccc1)C(=O)N[C@@H](CCCNC(=N)N)C(=O)N[C@H](Cc1c[nH]c2ccccc12)C(=O)N[C@H](Cc1ccccc1)C(=O)N[C@@H](CCCNC(=N)N)C(=O)N[C@@H](Cc1ccccc1)C(=O)NCC(=O)O) [CTX-1530]
356 | – | Ac-[Nle][dA]HFR[dW][dF]RFG-OH (SMILES CCCC[C@H](NC(C)=O)C(=O)N[C@H](C)C(=O)N[C@@H](Cc1c[nH]cn1)C(=O)N[C@@H](Cc1ccccc1)C(=O)N[C@@H](CCCNC(=N)N)C(=O)N[C@H](Cc1c[nH]c2ccccc12)C(=O)N[C@H](Cc1ccccc1)C(=O)N[C@@H](CCCNC(=N)N)C(=O)N[C@@H](Cc1ccccc1)C(=O)NCC(=O)O) [CTX-1531]
25.5 | 278 | Ac-[Nle][dA]HFR[dW]DRAG-OH (SMILES CCCC[C@H](NC(C)=O)C(=O)N[C@H](C)C(=O)N[C@@H](Cc1c[nH]cn1)C(=O)N[C@@H](Cc1ccccc1)C(=O)N[C@@H](CCCNC(=N)N)C(=O)N[C@H](Cc1c[nH]c2ccccc12)C(=O)N[C@@H](CC(=O)O)C(=O)N[C@@H](CCCNC(=N)N)C(=O)N[C@@H](C)C(=O)NCC(=O)O) [CTX-1537]
65.2 | 9 | Ac-[Nle][dA]HFR[dW]F-NH2 (SMILES CCCC[C@H](NC(C)=O)C(=O)N[C@H](C)C(=O)N[C@@H](Cc1c[nH]cn1)C(=O)N[C@@H](Cc1ccccc1)C(=O)N[C@@H](CCCNC(=N)N)C(=O)N[C@H](Cc1c[nH]c2ccccc12)C(=O)N[C@@H](Cc1ccccc1)C(N)=O) [CTX-1541]
